T1: human TIGIT-Fc (human, UniProt Q495A1 22-141, limits assumed)
T1 construct: not shown: Fc; not described
T1 sequence (looked up): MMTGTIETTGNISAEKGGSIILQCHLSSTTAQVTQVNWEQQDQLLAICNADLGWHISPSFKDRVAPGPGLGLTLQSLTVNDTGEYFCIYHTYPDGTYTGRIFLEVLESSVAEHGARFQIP


The binders below were run against T1, human TIGIT-Fc (assay: CD155 competition ELISA, single point; also: test concentration or dose not given here).
Method: TIGIT/CD155 inhibition of VHH-Fcs were assessed using an ELISA assay (Table 10B). Briefly, human TIGIT-Fc was coated on a plate & then incubated with VHH-Fcs and human CD155-biotin. Bound CD155-biotin was detected using a streptavidin-HRP conjugate visualized with TMB. Strong inhibitors from the single point screen were titrated to determine EC50 (Table 10C).

OD (450 nm) | Binder
0.52 OD | TIGIT-SC148 (Fc fusion, VHH-Fc) VHH: EVQLVESGGGLVQPGGSLRLSCAASGDIGSINAMGWFRQAPGKEREFVAGIWRSGNLKAYADSVKGRFTISADNSKNTAYLQMSSLKPEDTAVYYCARGNIVVVPAAFVIWFDPWGQGTLVTVSS
0.69 OD | TIGIT-SC142 (Fc fusion, VHH-Fc) VHH: EVQLVESGGGLVQPGGSLRLSCAASGFSFDRWAMGWFRQAPGKEREFVAAIGWSGNLKAYADSVKGRFTISADNSKNTAYLQMNSLKPEDTAVYYCASGDGYSMDYFDPWGQGTLVTVSS
0.626 OD | TIGIT-SC143 (Fc fusion, VHH-Fc) VHH: EVQLVESGGGLVQPGGSLRLSCAASGFTLGYYVMGWFRQAPGKEREFVAAISASGTLRAYADSVEGRFTISADNSKNTAYLQMNSLKPEDTAVYYCARAELGYSYGSVDGYWGQGTLVTVSS
0.708 OD | TIGIT-SC140 (Fc fusion, VHH-Fc) VHH: EVQLVESGGGLVQPGGSLRLSCAASGNTFSGGFTFDRSWMGWFRQAPGKEREWVASVLRGGYTWYADSVKGRFTISADNSKNTAYLQMNSLKPEDTAVYYCAGDRYYDFWSGPNSGDYWGQGTLVTVSS
0.845 OD | TIGIT-SC134 (Fc fusion, VHH-Fc) VHH: EVQLVESGGGLVQPGGSLRLSCAASGFTLENNMMGWFRQAPGKEREFVAAISASGTLRAYADSVKGRFTISADNSKNTAYLQMNSLKPEDTAVYYCARWYRVNNWSPGYYYYMDVWGQGTLVTVSS
0.432 OD | TIGIT-SC145 (Fc fusion, VHH-Fc) VHH: EVQLVESGGGLVQPGGSLRLSCAASGNTFSGGFTLGYYVMGWFRQAPGKEREFVAAISRSGTLKAYADGVKGRFTISADNSKNTAYLQMNSLKPEDTAVYYCARVEAYGDPLGYWGQGTLVTVSS
0.51 OD | TIGIT-SC139 (Fc fusion, VHH-Fc) VHH: EVQLVESGGGLVQPGGSLRLSCAASGFTLENNMMGWFRQAPGKEREFVAAISRSGTLKAYADSVKGRFTISADNSKNTAYLRMNSLKPEDTAVYYCAGLTSGGAFSYYWGQGTLVTVSS
0.306 OD | TIGIT-SC137 (Fc fusion, VHH-Fc) VHH: EVQLVESGGGLVQPGGSLRLSCAASGFTLENNMMGWFRQAPGKEREFVAAISRSGTLKAYADSVKGRFTISADNSKNTAYLQMNSLKPEDTAVYYCSLVSGPRWYWGQGTLVTVSS
0.513 OD | TIGIT-SC94 (Fc fusion, VHH-Fc) VHH: EVQLVESGGGLVQPGGSLRLSCAASGSSFSAYAMGWFRQAPGKEREFVSLINWSSGKTIYADSVKGRFTISADNSKNTAYLQMNSLKPEDTAVYYCARVRIFNHVHRPSYYFDYWGQGTLVTVSS
0.593 OD | TIGIT-SC92 (Fc fusion, VHH-Fc) VHH: EVQLVESGGGLVQPGGSLRLSCAASGSTIENYAMGWFRQAPGKEREFVAAIDWSGGSTYYADSVKGRFTISADNSKNTAYLQMNSLKPEDTAVYYCARWRSIWSGYDDYYYMDVWGQGTLVTVSS
0.307 OD | TIGIT-SC93 (Fc fusion, VHH-Fc) VHH: EVQLVESGGGLVQPGGSLRLSCAASSRTVSSHAMGWFRQAPGKEREFVAAISWSGVTTYYADSVKGRFTISADNSKNTAYLQMNSLKPEDTAVYYCARWRSIWSGYDDYYYMDVWGQGTLVTVSS
0.484 OD | TIGIT-SC91 (Fc fusion, VHH-Fc) VHH: EVQLVESGGGLVQPGGSLRLSCAASGFTFSNYAMGWFRQAPGKEREFVAAINWNSRSTYYADSVKGRFTISADNSKNTAYLQMNSLKPEDTAVYYCARWRSIWSGYDDYYYMDVWGQGTLVTVSS
0.284 OD | TIGIT-SC133 (Fc fusion, VHH-Fc) VHH: EVQLVESGGGLVQPGGSLRLSCAASGFTLENNMMGWFRQAPGKEREFVAAISASGTLRAYADSVKGRFTISADNSKNTAYLQMNSLKPEDTAVYYCACGRVSGAFIYFDYWGQGTLVTVSS
0.686 OD | TIGIT-SC144 (Fc fusion, VHH-Fc) VHH: EVQLVESGGGLVQPGGSLRLSCAASGFTLENNMMGWFRQAPGKEREFVAAISPSGTLRAYADSVKGRFTISADNSKNTAYLQMNSLKPEDTAVYYCAGIHDSGVPLGNWGQGTLVTVSS
0.633 OD | TIGIT-SC141 (Fc fusion, VHH-Fc) VHH: EVQLVESGGGLVQPGGSLRLSCAASGNAFSSSVMGWFRQAPGKEREFVAGIWRSGSLKAYADSVKGRFTISADNSKNTAYLQMNSLRPEDTAVYYCARAYVGMTTVTFDHWGQGTLVTVSS
0.701 OD | TIGIT-SC104 (Fc fusion, VHH-Fc) VHH: EVQLVESGGGLVQPGGSLRLSCAASGFTFSTYTMGWFRQAPGKEREFVAAISPSGNTYYADSVKGRFTISADNSKNTAYLQMNSLKPEDTAVYYCARWGGITFGGVYPLDYWGQGTLVTVSS

OD (450 nm) | Binder
0.423 OD | TIGIT-SC146 (Fc fusion, VHH-Fc) VHH: EVQLVESGGGLVQPGGGLRLSCAASGFTLENNMMGWFRQAPGKEREFVAAISASGTLRAYADSVKGRFTISADNSKNTAYLQMNSLKPEDTAVYYCAKGGQAGPMAFYFDYWGQGTLVTVSS
0.677 OD | TIGIT-SC96 (Fc fusion, VHH-Fc) VHH: EVQLVESGGGLVQPGGSLRLSCAASGMTTIGPMGWFRQAPGKEREFVAAINWSGSSTVYADSVKGRFTISADNSKNTAYLQMNSLKPEDTAVYYCVTYSAYDFRNAWGQGTLVTVSS
0.692 OD | TIGIT-SC100 (Fc fusion, VHH-Fc) VHH: EVQLVESGGGLVQPGGSLRLSCAASGRTLSDRAMGWFRQAPGKEREFVAAITDNGGSTYYADSVKGRFTISADNSKNTAYLQMNSLKPEDTAVYYCARWYSSSGDYYYMDVWGQGTLVTVSS
0.394 OD | TIGIT-SC101 (Fc fusion, VHH-Fc) VHH: EVQLVESGGGLVQPGGSLRLSCAASGRTFSSYAMGWFRQAPGKEREFVAAIDWSDGSTYYADSVKGRFTISADNSKNTAYLQMNSLKPEDTAVYYCARWYSSSGDYYYMDVWGQGTLVTVSS
0.959 OD | TIGIT-SC105 (Fc fusion, VHH-Fc) VHH: EVQLVESGGGLVQPGGSLRLSCAASGFAFSRYGMGWFRQAPGKERELVATIGWSGSSTFYADSVKGRFTISADNSKNTAYLQMNSLKPEDTAVYYCARDGGPYYYGLDVWGQGTLVTVSS
0.311 OD | TIGIT-SC102 (Fc fusion, VHH-Fc) VHH: EVQLVESGGGLVQPGGSLRLSCAASGSTFSKHHAMGWFRQAPGKEREFVAAIRWSGGNTYYADSVKGRFTISADNSKNTAYLQMNSLKPEDTAVYYCARWYSSSGDYYYMDVWGQGTLVTVSS
0.878 OD | TIGIT-SC147 (Fc fusion, VHH-Fc) VHH: EVQLVESGGGLVQPGGSLRLSCAASGTITSAVFMGWFRQAPGKEREFVAAVIWRGGSLKSYADSVKGRFTISADNSKNTAYLQMNSLKPEDTAVYYCAKLAVAGNYYYYGMDVWGQGTLVTVSS
0.384 OD | TIGIT-SC89 (Fc fusion, VHH-Fc) VHH: EVQLVESGGGLVQPGGSLRLSCAASGSMSSINAMGWFRQAPGKEREFVAAINYEGDRTYYADSVKGRFTISADNSKNTAYLQMNSLKPEDTAVYYCARWTRGLVSGTYYYYMDVWGQGTLVTVSS
0.519 OD | TIGIT-SC90 (Fc fusion, VHH-Fc) VHH: EVQLVESGGGLVQPGGSLRLSCAASGDTFSSKAMGWFRQAPGKEREFVAAIRWSVSSTYYADSVKGRFTISADNSKNTAYLQMNSLKPEDTAVYYCARWTRGLVSGTYYYYMDVWGQGTLVTVSS
0.571 OD | TIGIT-SC136 (Fc fusion, VHH-Fc) VHH: EVQLVESGGGLVQPGGSLRLSCAASGFTLENNMMGWFRQAPGKEREFVAAISRSGTLKAYADSVKGRFTISADNSKNTAYLQMNSLKPEDTAVYYCARGGELTTFYFGYWGQGTLVTVSS
0.445 OD | TIGIT-SC150 (Fc fusion, VHH-Fc) VHH: EVQLVESGGGLVQPGGSLRLSCAASGFTLENNMMGWFRQAPGKEREFVAAISRSGTLKAYADSVKGRFTISADNSKNTAYLQVNSLKPEDTAVYYCVRVRGYSGYDCDYWGQGTLVTVSS
0.472 OD | TIGIT-SC158 (Fc fusion, VHH-Fc) VHH: EVQLVESGGGLVQPGGSLRLSCAASGFTFSPSWMGWFRQAPGKEREWVASVLRGGYTWYADSVKGRFTISADNSKNTAYLQMNSLKPEDTAVYYCAREGRSSSPWFDPWGQGTLVTVSS
0.467 OD | TIGIT-SC160 (Fc fusion, VHH-Fc) VHH: EVQLVESGGGLVQPGGSLRLSCAASGNTFSGGFMGWFRQAPGKEREWVASVLRGGYTWYADSVKGRFTISADNSKNTAYLQMNSLKPEDTAVYYCAREGRSSSPWFDPWGQGTLVTVSS
0.749 OD | TIGIT-SC159 (Fc fusion, VHH-Fc) VHH: EVQLVESGGGLVQPGGSLRLSCAASGFTFDRSWMGWFRQAPGKEREWVASVLRGGYTWYADSVKGRFTISADNSKNTAYLQMNSLKPEDTAVYYCAREGRSSSPWFDPWGQGTLVTVSS
0.449 OD | TIGIT-SC155 (Fc fusion, VHH-Fc) VHH: EVQLVESGGGLVQPGGSLRLSCAASGNTFSGGFMGWFRQAPGKEREWVASVLRGGYTWYADSVKGRFTISADNSKNTAYLQMNSLKPEDTAVYYCAGDYRGFEMAFDPWGQGTLVTVSS
0.465 OD | TIGIT-SC154 (Fc fusion, VHH-Fc) VHH: EVQLVESGGGLVQPGGSLRLSCAASGFAFSSDWMGWFRQAPGKEREWVASVLRGGYTWYADSVKGRFTISADNSKNTAYLQMNSLKPEDTAVYYCAGDYRGFEMAFDPWGQGTLVTVSS
